From US20080219999A1 come the findings set out here.

For the experiment, the target named is Rhinovirus serotype HRV-39 (human rhinovirus 39). Put plainly: cell-based or functional assay.

“soluble human ICAM-1 (from UniProt P05362 28-480)” yielded an IC50, cytopathic effect (CPE) assay on HeLa S3 cells of 1.35 µg/mL.

Substance “IC1-5D/IgA (ICAM/IgA fusion, gift of Dr. Tim Springer; Martin, et al., 1993) (from UniProt P05362 28-480; P01876 103-353) (Fc fusion)” returned an IC50, cytopathic effect (CPE) assay on HeLa S3 cells of 0.12 µg/mL and a fold lower IC50 than soluble ICAM-1, CPE assay on HeLa S3 cells of 11.3 fold.
